# Test results reported in the supplement of paper PMC12764529.
# ± gives the half width of the 95% confidence interval.
# Columns and labels:
# [1] = folding stability dG unfold from trypsin proteolysis; higher = more stable
# Method in brief: (§1)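 Bayesian fitting of sequencing counts gave K50 for each design. Unfolding free energy followed by setting this against a sequence-predicted unfolded-state K50 and a shared folded-state K50, either per protease or with trypsin and chymotrypsin combined. The designs, under 80 residues and lacking cysteine, were digested in a PA-tagged cDNA display format at 11 threefold-diluted protease concentrations and without protease, and only those with AlphaFold2 dimer inter-PAE above 15 were kept.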
# [2] = folding stability dG unfold from chymotrypsin proteolysis; higher = more stable
# Method in brief: as §1
# [3] = folding stability dG unfold (combined trypsin and chymotrypsin); higher = more stable
# Method in brief: as §1
Sequence,folding stability dG unfold [1] [kcal/mol],folding stability dG unfold [2] [kcal/mol],folding stability dG unfold [3] [kcal/mol]
SAGGSSMKTSETTDPANGTPVRVETSIDPATNKVTTTVTTPDGTTVGSGTITIPPESSVTTTTTTTTPASAG [r5_747_JUSTAS],0.793 ± 0.079,1.49 ± 0.091,1.21 ± 0.11
SAGGSAGGSAPNYIKIRIKFQSDGKRHSMEIFIPDNPKKAKQIAKEMANMGGIEDVEVERYSAGGSAGGSAG [r3_310_TrROS],0.515 ± 0.13,0.659 ± 0.13,0.667 ± 0.16
SAGGSDLKVQVNKDGNTIRIQLPDGKPIFEIPFYRYDPDDGKPLEPWTIRMRLDPDGNIKIEEITPSAGGSA [r2_362_TrROS],1.77 ± 0.044,1.45 ± 0.14,1.68 ± 0.15
SAGGSAGGSAGGSNIPSDSTVTSKGSSDTTTSTYYNPETGTTLVTTTPPDGVPTTTTTASAGGSAGGSAGGS [r10_592_JUSTAS],0.621 ± 0.059,-0.398 ± 0.36,0.159 ± 0.12
SAGGSAGGSASMTVVVEREEITRRDPSSDELFEEEVVRATTTEKDGVIETTTLPEEEWEKLSSAGGSAGGSA [r18_406_JUSTAS],0.348 ± 0.056,-0.521 ± 0.2,-0.0202 ± 0.32
SAGGSAGGSAGMMVVRAKIKLPNGEVLEIENMSLEEILALAKEKGYEIVDIEVVAPDEEPSAGGSAGGSAGG [r11_283_TrMRF],4.77 ± 0.77,4.07 ± 0.14,4.37 ± 0.26
SAGGSAGGMHINAPGSIEELEEKLGGPIAEATLEGPGTFTLTLENGVPITVSFDDPEQLEELIESAGGSAGG [r6_13_TrMRF],0.524 ± 0.059,0.243 ± 0.16,0.387 ± 0.18
SAGGSAGGSAGRMLVIEIEMPGRKRTFMIPTPDGPPIKAEELADKLGFDNVTVKIHPIDDSAGGSAGGSAGG [r11_219_TrROS],-0.12 ± 0.55,0.261 ± 0.31,0.0664 ± 0.16
SAGGAGDQPVVIVATGSDGSPRVFPFKTKEPFKVTVNFPDEKRVFTVPADEPFVFDAPDGDILLDASSAGGS [r16_456_TrMRF],-0.23 ± 0.11,0.697 ± 0.12,0.394 ± 0.095
SAGGSAGGSAGKFKIKVFTHPDGYALALIEVPLGDKPVLILTLIKFPEDGNAEAETFIFPSAGGSAGGSAGG [r11_555_TrMRF],2.06 ± 0.053,3.25 ± 0.077,2.84 ± 0.13
SAKIKIEKKEDGTIVIEVEAESEEEAEEAVKELVKELEKKGIKVEVVEVKIEKDPEKKGKYRVTIVIKKSAG [r14_119_TrROS_Hall],2.69 ± 0.21,4.39 ± 0.18,3.76 ± 0.33
SAGGAEELAKRLAEELREAGYEVEVVKVERLENGEVVITMKVRVVKDGKEVEEREIKLVLKLPEELLSAGGS [r8_102_TrROS_Hall],3.93 ± 0.097,4.03 ± 0.069,3.98 ± 0.086
SAGGSAAKPGETVRVVVTVRVPPGATAEELKAALEALLGPDAEVTVEVFETPDTVVVVVEVRLPPASAGGSA [r15_749_TrROS_Hall],2.65 ± 0.26,2.66 ± 0.11,2.74 ± 0.19
SAVIPLEELARKVAEELGLEPVEVLEVIPEEGVVVMRFEGAVIVVKVDPETGEAEVEIVVFDPETGKPVSAG [r14_270_TrMRF],2.82 ± 0.11,3.35 ± 0.063,3.16 ± 0.085
SSSVVESSYDPSTGTLTVTVSYDFPPAPPAAATSSTTPVGSNSYTGSGSYTSPAGASSLSSTATGPPTLSSA [r9_780_JUSTAS],1.43 ± 0.031,1.15 ± 0.054,1.37 ± 0.048
SAGGSAGGSAGPEIELREDSLVIRVKAKEGEVIGVPEGLEVEGVVYDPSTGELTVVVRAPSAGGSAGGSAGG [r11_942_TrMRF],2.31 ± 0.23,1.73 ± 0.096,1.83 ± 0.21
SAGGSAGGSAGKTLVFKTKEEALKAIEEEAKKKGYKKVKIEITEVGPDGKVKVKVKIEKKSAGGSAGGSAGG [r17_430_TrROS_Hall],0.763 ± 0.047,1.34 ± 0.18,1.3 ± 0.19
SAPPKTRTREIEIRFDDYYVRIKITWTKDGNLKLDIEFQGPNPVMREQIKDFLEELNPDFEITDIEVYRSAG [r14_611_TrROS],2.13 ± 0.14,2.67 ± 0.057,2.38 ± 0.3
SAGGSAPKPDWIVRIEITVKFPGKTKKIDIVIDSPEALNQIINELKDEGFKDVEPKIEWVPLEEMKSAGGSA [r15_1015_TrROS],0.296 ± 0.089,1.21 ± 0.17,0.915 ± 0.26
SAGGSAGGSAGGKTVWIPWDDLEELKDLPPGKKRTIHLWNPKNGRWYRITVTDNNIEIERSAGGSAGGSAGG [r7_765_TrROS],2.36 ± 0.061,3.088 ± 0.013,2.86 ± 0.078
SAGSVTTITDPAGTTTEIQPLPDGSLLTTTTTHTTNPATGGATTTTTTTLVSPVPGQPSTTTSTTTTPASAG [r5_424_JUSTAS],1.58 ± 0.039,0.195 ± 0.027,1 ± 0.051
